# According to patent US20040253243A1, “Aptamer therapeutics useful in ocular pharmacotherapy” (priority 2003, published 2004):
# Strand notation (5' to 3'): a small letter for the sugar, then the base; units joined by * are phosphorothioate-linked, units joined directly phosphodiester-linked; [ ] holds rarer units or linkages, { } end groups; capitals alone tell only the bases. r = 2'-OH (RNA); f = 2'-fluoro
# Biological target: T1, TGFβ2 (Homo sapiens, UniProt P61812)
# T1 construct: For bio-chemical characterization of these aptamers, two forms of mature TGFβ2 were generated, native and N-terminal his-tagged versions, in E. coli
# T1 sequence (P61812 303-414 limits assumed): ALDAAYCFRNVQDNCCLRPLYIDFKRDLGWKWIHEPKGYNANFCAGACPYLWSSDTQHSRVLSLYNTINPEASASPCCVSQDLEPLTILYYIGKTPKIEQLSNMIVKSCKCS
# Assay: Dot blot binding of doped reselection aptamers to TGFβ2
# Settings: CW128_103
# Procedure: TGFβ2 was serially diluted in DPBS containing 0.2 mg/ml BSA and 0.2 mg/ml tRNA. ^32P-labeled RNA (<20 pM) were incubated with TGFβ2 at room temperature for 30 min. Samples were pipetted with a multichannel pippetor onto a multiwell manifold holding layers of pre-wetted 0.45 micron nitrocellulose, hybond membrane, 3MM filter paper (the order is from top to bottom), aspirated, and washed 3× with DPBS (containing tRNA). All three filters were air dried, exposed to phosphorimager plate, analyzed by ImageQuant.
row,Molecule,Kd
1,GGGAGGACGAUGCGGGGAGGUUAUUACAGAGUCUGUAUAGCUGUACUCCCAGACGACUCGCCCGA (nucleic acid) rGrGrGrArGrGrAfCrGrAfUrGfCrGrGrGrGrArGrGfUfUrAfUfUrAfCrArGrArGfUfCfUrGfUrAfUrArGfCfUrGfUrAfCfUfCfCfCrArGrAfCrGrAfCfUfCrGfCfCfCrGrA,0.75 nM
2,"GGGAGGACGAUGCGGACAGAGUAUUAUAGAGUAUGUAUAGCUAUACUGUCCAGACGACUCGCCCGA (nucleic acid, aptamer) rGrGrGrArGrGrAfCrGrAfUrGfCrGrGrAfCrArGrArGfUrAfUfUrAfUrArGrArGfUrAfUrGfUrAfUrArGfCfUrAfUrAfCfUrGfUfCfCrArGrAfCrGrAfCfUfCrGfCfCfCrGrA",0.53 nM

# Biological target: T1, TGFβ2
# Assay: Binding data as performed in MLEC inhibition assay CW115-95, 117, 129
# Format: cell-based
# Settings: full-length aptamer sequences; experiment 129
# Procedure: MLEC Assay. The mink lung epithelial cell proliferation assay is performed over two days. On day 1:1) media is aspirated off from Mink Lung Epithelial Cells (MLEC); 2) the MLEC are washed with 10 ml 1×PBS; 3) 3 ml Trypsin is added and Trypsinize for 3 min at 37° C.; 4) quench with 10 ml 0.5% FBS media; 5) spin at 1000 rpm for 3.30 min; 6) aspirate off supernatant; 7) resuspend pellet in 10 ml 0.5% FBS media; 8) Count 10 μl cell suspension; 9) adjust cell density to 80,000 cells/ml; 10) add 50 μl of cells/well to black bottomed 96-well plates (4000 cells/well); pipet up and down during plating process to avoid settling of cells and uneven plating; 11) incubate cells at 37° C. in 5% CO2 for 4 hrs to allow adherence of cells; 12) add 25 μl of aptamer (or media, or other test reagent, such as for example, an antibody), preferably the outer wells are not used for treated cells; 13) add 25 μl of TGFβ2 (typically 25 pg/ml); and 14) incubate cells at 37° C. in 5% CO2 overnight.
# On day 2:1) mix 20 μl BrdU with 2 ml 0.5% FBS media; 2) add 10 μl of BrdU mixture/well; 3) incubate cells at 37° C. in 5% CO2 for 3 hrs; 4) remove media and blot plates dry on paper towels; 5) add 200 μl/well FixDenat solution and incubate for 30 min at room temperature (RT); 6) remove FixDenat solution and blot plates dry on paper towels; 7) add 100 μl /well anti-BrdU POD solution and incubate for 90 min at RT; 8) remove anti-BrdU POD solution and blot plates dry on paper towels; 9) wash plates 3× with […] washing solution with 5 min RT incubations and blot plates dry on paper towels; 10) add 100 μl /well substrate solution and incubate for 3 min at RT in dark; and 11) read plates using PSP Luciferace 1 program on TopCount (Packard Bioscience Co., Downers Grove, Ill.).
row,Molecule,IC50
1,"GGGAGGACGAUGCGGAGGGAUUAUUAUAGAGUCUGUAUAGCUAUACCCUCAGACGACUCGCCCGA (nucleic acid, aptamer) rGrGrGrArGrGrAfCrGrAfUrGfCrGrGrArGrGrGrAfUfUrAfUfUrAfUrArGrArGfUfCfUrGfUrAfUrArGfCfUrAfUrAfCfCfCfUfCrArGrAfCrGrAfCfUfCrGfCfCfCrGrA",5.3 nM
2,"GGGAGGACGAUGCGGUGUGAGUAUUAUAGAGUCUGUAUAGCUAUACCACCAGACGACUCGCCCGA (nucleic acid, aptamer) rGrGrGrArGrGrAfCrGrAfUrGfCrGrGfUrGfUrGrArGfUrAfUfUrAfUrArGrArGfUfCfUrGfUrAfUrArGfCfUrAfUrAfCfCrAfCfCrArGrAfCrGrAfCfUfCrGfCfCfCrGrA",7.4 nM
3,"GGGAGGACGAUGCGGAUAGAGUAUUAUAGAGUAUGUAUAGCUAUACUAUCAGACGACUCGCCCGA (nucleic acid, aptamer) rGrGrGrArGrGrAfCrGrAfUrGfCrGrGrAfUrArGrArGfUrAfUfUrAfUrArGrArGfUrAfUrGfUrAfUrArGfCfUrAfUrAfCfUrAfUfCrArGrAfCrGrAfCfUfCrGfCfCfCrGrA",17.9 nM
4,"GGGAGGACGAUGCGGUGAGAGUAUUAUAGAGUCUGUAUAGCUAUACUCGCCAGACGACUCGCCCGA (nucleic acid, aptamer) rGrGrGrArGrGrAfCrGrAfUrGfCrGrGfUrGrArGrArGfUrAfUfUrAfUrArGrArGfUfCfUrGfUrAfUrArGfCfUrAfUrAfCfUfCrGfCfCrArGrAfCrGrAfCfUfCrGfCfCfCrGrA",6.5 nM
5,"GGGAGGACGAUGCGGACAGAGUAUUAUAGAGUAUGUAUAGCUAUACUGUCCAGACGACUCGCCCGA (nucleic acid, aptamer) rGrGrGrArGrGrAfCrGrAfUrGfCrGrGrAfCrArGrArGfUrAfUfUrAfUrArGrArGfUrAfUrGfUrAfUrArGfCfUrAfUrAfCfUrGfUfCfCrArGrAfCrGrAfCfUfCrGfCfCfCrGrA",5.2 nM
6,"GGGAGGACGAUGCGGUGAGAGUAUUAUAGAGUCUGUAUAGCUAUACCACCAGACGACUCGCCCGA (nucleic acid, aptamer) rGrGrGrArGrGrAfCrGrAfUrGfCrGrGfUrGrArGrArGfUrAfUfUrAfUrArGrArGfUfCfUrGfUrAfUrArGfCfUrAfUrAfCfCrAfCfCrArGrAfCrGrAfCfUfCrGfCfCfCrGrA",8 nM
7,"GGGAGGACGAUGCGGGACAGAGUAUUAUAGAGUAUGUAUAGCUAUACUGUCAGACGACUCGCCCGA (nucleic acid, aptamer) rGrGrGrArGrGrAfCrGrAfUrGfCrGrGrGrAfCrArGrArGfUrAfUfUrAfUrArGrArGfUrAfUrGfUrAfUrArGfCfUrAfUrAfCfUrGfUfCrArGrAfCrGrAfCfUfCrGfCfCfCrGrA",12.1 nM
8,"GGGAGGACGAUGCGGACAGAGUAUUAUAGAGUAUGUAUAGCUAUACUGUCAGACGACUCGCCCGA (nucleic acid, aptamer) rGrGrGrArGrGrAfCrGrAfUrGfCrGrGrAfCrArGrArGfUrAfUfUrAfUrArGrArGfUrAfUrGfUrAfUrArGfCfUrAfUrAfCfUrGfUfCrArGrAfCrGrAfCfUfCrGfCfCfCrGrA",14.5 nM
